Reference: article PMC5639936 (Nature plants, 2017)

T1: SHR-SCR complex (SHR 59-531 with SCR 275-653) (Arabidopsis thaliana, UniProt Q9SZF7 59-531; Q9M384 275-653)
T1 sequence (looked up) 1: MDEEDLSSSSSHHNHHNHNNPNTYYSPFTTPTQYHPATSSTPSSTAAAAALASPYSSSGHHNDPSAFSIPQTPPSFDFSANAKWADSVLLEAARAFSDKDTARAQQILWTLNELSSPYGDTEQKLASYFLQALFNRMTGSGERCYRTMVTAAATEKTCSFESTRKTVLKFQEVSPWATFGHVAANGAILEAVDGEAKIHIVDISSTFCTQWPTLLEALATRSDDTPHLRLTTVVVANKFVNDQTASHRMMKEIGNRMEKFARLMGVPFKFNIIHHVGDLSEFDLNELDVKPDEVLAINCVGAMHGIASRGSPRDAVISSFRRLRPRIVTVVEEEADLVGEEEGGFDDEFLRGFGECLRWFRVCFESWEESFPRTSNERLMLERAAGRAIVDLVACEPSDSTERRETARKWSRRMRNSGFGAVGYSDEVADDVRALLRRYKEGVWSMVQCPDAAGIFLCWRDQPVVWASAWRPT
T1 sequence (looked up) 2: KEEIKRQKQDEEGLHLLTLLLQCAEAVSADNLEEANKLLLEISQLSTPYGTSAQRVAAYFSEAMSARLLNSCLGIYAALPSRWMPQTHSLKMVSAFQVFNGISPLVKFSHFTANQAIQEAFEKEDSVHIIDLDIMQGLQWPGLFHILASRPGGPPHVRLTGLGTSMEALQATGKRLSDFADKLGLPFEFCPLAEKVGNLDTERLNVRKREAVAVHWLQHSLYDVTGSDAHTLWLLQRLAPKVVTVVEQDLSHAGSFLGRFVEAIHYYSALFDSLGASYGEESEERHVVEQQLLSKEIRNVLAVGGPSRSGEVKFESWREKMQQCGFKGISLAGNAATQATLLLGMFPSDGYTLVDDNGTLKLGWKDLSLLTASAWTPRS


Experiments:
[1] = biological target: T1, SHR-SCR complex (SHR 59-531 with SCR …); assay: ITC
AUC = biological target: the molecule itself; assay: AUC

Binder	Kd [1]	dH [1]	stoichiometry N [1]	stoichiometry N (AUC)
JKD/IDD10 ZF3-ZF4 (residues 155-224) (domain or fragment, Arabidopsis thaliana, UniProt Q700D2 155-224, looked up) GEKKWKCEKCSKKYAVQSDWKAHAKTCGTREYKCDCGTLFSRKDSFITHRAFCDALTEEGARMSSLSNNN	124 ± 81.7 nM	-1.29 ± 0.03 kcal/mol	0.6 ± 0.01	–
MGP/IDD3 ZF3-ZF4 (residues 143-221) (domain or fragment, Arabidopsis thaliana, UniProt Q9ZWA6 143-221, looked up) EKKWKCEKCAKRYAVQSDWKAHSKTCGTREYRCDCGTIFSRRDSFITHRAFCDALAEETARLNAASHLKSFAATAGSNL	35.5 ± 11.2 nM	2.59 ± 0.02 kcal/mol	0.81 ± 0.003	–
AtSCL3 (natural protein, Arabidopsis, UniProt Q9LPR8 1-482, looked up) MVAMFQEDNGTSSVASSPLQVFSTMSLNRPTLLASSSPFHCLKDLKPEERGLYLIHLLLTCANHVASGSLQNANAALEQLSHLASPDGDTMQRIAAYFTEALANRILKSWPGLYKALNATQTRTNNVSEEIHVRRLFFEMFPILKVSYLLTNRAILEAMEGEKMVHVIDLDASEPAQWLALLQAFNSRPEGPPHLRITGVHHQKEVLEQMAHRLIEEAEKLDIPFQFNPVVSRLDCLNVEQLRVKTGEALAVSSVLQLHTFLASDDDLMRKNCALRFQNNPSGVDLQRVLMMSHGSAAEARENDMSNNNGYSPSGDSASSLPLPSSGRTDSFLNAIWGLSPKVMVVTEQDSDHNGSTLMERLLESLYTYAALFDCLETKVPRTSQDRIKVEKMLFGEEIKNIISCEGFERRERHEKLEKWSQRIDLAGFGNVPLSYYAMLQARRLLQGCGFDGYRIKEESGCAVICWQDRPLYSVSAWRCRK	–	–	–	2
